Columns and labels:
GST-GABARAP = GST-GABARAP (UniProt O95166); experiment: microscopy-based protein-protein interaction assay (on-bead binding, confocal); conditions: 1 μM C53 protein; glutathione-sepharose beads with GST-GABARAP; parent: est. 1.0; read off a plot
[1] = target: GST-ATG8A (Arabidopsis thaliana) (UniProt Q8LEM4); experiment: microscopy-based on-bead protein-protein interaction assay
Sequence of GST-ATG8A (Arabidopsis thaliana) (Q8LEM4 1-117): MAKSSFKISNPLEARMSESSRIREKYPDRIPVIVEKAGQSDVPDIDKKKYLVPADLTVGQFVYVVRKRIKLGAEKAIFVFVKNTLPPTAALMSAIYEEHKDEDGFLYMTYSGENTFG

Sequence of GST-GABARAP (O95166 whole entry): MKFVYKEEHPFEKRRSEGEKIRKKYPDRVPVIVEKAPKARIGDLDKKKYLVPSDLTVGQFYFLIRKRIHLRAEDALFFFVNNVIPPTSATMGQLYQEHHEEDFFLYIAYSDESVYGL

| Substance | response (normalized fluorescence) (GST-GABARAP) | percent more efficiently recruited than the wild type [1] [%] |
| --- | --- | --- |
| mCh-AtC53, Q9FG23 IDWD274WDDI; IDWD285WDDI; IDWD333WDDI | 1.4 | – |
| mCh-AtC53^cAIM (IDWD274WDDI, IDWD285WDDI, IDWD333WDDI) (natural protein) | – | 22 |

Reference: paper PMC10183829, “Shuffled ATG8 interacting motifs form an ancestral bridge between UFMylation and autophagy” (The EMBO Journal, 2023)
